Measurements as given in publication PMC12199305 (2025).

B1: HDAC4 (enzyme)
chain: MSSQSHPDGLSGRDQPVELLNPARVNHMPSTVDVATALPLQVAPSAVPMDLRLDHQFSLPVAEPALREQQLQQELLALKQKQQIQRQILIAEFQRQHEQLSRQHEAQLHEHIKQQQEMLAMKHQQELLEHQRKLERHRQEQELEKQHREQKLQQLKNKEKGKESAVASTEVKMKLQEFVLNKKKALAHRNLNHCISSDPRYWYGKTQHSSLDQSSPPQSGVSTSYNHPVLGMYDAKDDFPLRKTASEPNLKLRSRLKQKVAERRSSPLLRRKDGPVVTALKKRPLDVTDSACSSAPGSGPSSPNNSSGSVSAENGIAPAVPSIPAETSLAHRLVAREGSAAPLPLYTSPSLPNITLGLPATGPSAGTAGQQDAERLTLPALQQRLSLFPGTHLTPYLSTSPLERDGGAAHSPLLQHMVLLEQPPAQAPLVTGLGALPLHAQSLVGADRVSPSIHKLRQHRPLGRTQSAPLPQNAQALQHLVIQQQHQQFLEKHKQQFQQQQLQMNKIIPKPSEPARQPESHPEETEEELREHQALLDEPYLDRLPGQKEAHAQAGVQVKQEPIESDEEEAEPPREVEPGQRQPSEQELLFRQQALLLEQQRIHQLRNYQASMEAAGIPVSFGGHRPLSRAQSSPASATFPVSVQEPPTKPRFTTGLVYDTLMLKHQCTCGSSSSHPEHAGRIQSIWSRLQETGLRGKCECIRGRKATLEELQTVHSEAHTLLYGTNPLNRQKLDSKKLLGSLASVFVRLPCGGVGVDSDTIWNEVHSAGAARLAVGCVVELVFKVATGELKNGFAVVRPPGHHAEESTPMGFCYFNSVAVAAKLLQQRLSVSKILIVDWDVHHGNGTQQAFYSDPSVLYMSLHRYDDGNFFPGSGAPDEVGTGPGVGFNVNMAFTGGLDPPMGDAEYLAAFRTVVMPIASEFAPDVVLVSSGFDAVEGHPTPLGGYNLSARCFGYLTKQLMGLAGGRIVLALEGGHDLTAICDASEACVSALLGNELDPLPEKVLQQRPNANAVRSMEKVMEIHSKYWRCLQRTTSTAGRSLIEAQTCENEEAETVTAMASLSVGVKPAEKRPDEEPMEEEPPL
B2: HDAC7 (enzyme)
chain: MDLRVGQRPPVEPPPEPTLLALQRPQRLHHHLFLAGLQQQRSVEPMRLSMDTPMPELQVGPQEQELRQLLHKDKSKRSAVASSVVKQKLAEVILKKQQAALERTVHPNSPGIPYRTLEPLETEGATRSMLSSFLPPVPSLPSDPPEHFPLRKTVSEPNLKLRYKPKKSLERRKNPLLRKESAPPSLRRRPAETLGDSSPSSSSTPASGCSSPNDSEHGPNPILGSEALLGQRLRLQETSVAPFALPTVSLLPAITLGLPAPARADSDRRTHPTLGPRGPILGSPHTPLFLPHGLEPEAGGTLPSRLQPILLLDPSGSHAPLLTVPGLGPLPFHFAQSLMTTERLSGSGLHWPLSRTRSEPLPPSATAPPPPGPMQPRLEQLKTHVQVIKRSAKPSEKPRLRQIPSAEDLETDGGGPGQVVDDGLEHRELGHGQPEARGPAPLQQHPQVLLWEQQRLAGRLPRGSTGDTVLLPLAQGGHRPLSRAQSSPAAPASLSAPEPASQARVLSSSETPARTLPFTTGLIYDSVMLKHQCSCGDNSRHPEHAGRIQSIWSRLQERGLRSQCECLRGRKASLEELQSVHSERHVLLYGTNPLSRLKLDNGKLAGLLAQRMFVMLPCGGVGVDTDTIWNELHSSNAARWAAGSVTDLAFKVASRELKNGFAVVRPPGHHADHSTAMGFCFFNSVAIACRQLQQQSKASKILIVDWDVHHGNGTQQTFYQDPSVLYISLHRHDDGNFFPGSGAVDEVGAGSGEGFNVNVAWAGGLDPPMGDPEYLAAFRIVVMPIAREFSPDLVLVSAGFDAAEGHPAPLGGYHVSAKCFGYMTQQLMNLAGGAVVLALEGGHDLTAICDASEACVAALLGNRVDPLSEEGWKQKPNLNAIRSLEAVIRVHSKYWGCMQRLASCPDSWVPRVPGADKEEVEAVTALASLSVGILAEDRPSEQLVEEEEPMNL
B3: HDAC9 (enzyme)
chain: MHSMISSVDVKSEVPVGLEPISPLDLRTDLRMMMPVVDPVVREKQLQQELLLIQQQQQIQKQLLIAEFQKQHENLTRQHQAQLQEHIKELLAIKQQQELLEKEQKLEQQRQEQEVERHRREQQLPPLRGKDRGRERAVASTEVKQKLQEFLLSKSATKDTPTNGKNHSVSRHPKLWYTAAHHTSLDQSSPPLSGTSPSYKYTLPGAQDAKDDFPLRKTASEPNLKVRSRLKQKVAERRSSPLLRRKDGNVVTSFKKRMFEVTESSVSSSSPGSGPSSPNNGPTGSVTENETSVLPPTPHAEQMVSQQRILIHEDSMNLLSLYTSPSLPNITLGLPAVPSQLNASNSLKEKQKCETQTLRQGVPLPGQYGGSIPASSSHPHVTLEGKPPNSSHQALLQHLLLKEQMRQQKLLVAGGVPLHPQSPLATKERISPGIRGTHKLPRHRPLNRTQSAPLPQSTLAQLVIQQQHQQFLEKQKQYQQQIHMNKLLSKSIEQLKQPGSHLEEAEEELQGDQAMQEDRAPSSGNSTRSDSSACVDDTLGQVGAVKVKEEPVDSDEDAQIQEMESGEQAAFMQQPFLEPTHTRALSVRQAPLAAVGMDGLEKHRLVSRTHSSPAASVLPHPAMDRPLQPGSATGIAYDPLMLKHQCVCGNSTTHPEHAGRIQSIWSRLQETGLLNKCERIQGRKASLEEIQLVHSEHHSLLYGTNPLDGQKLDPRILLGDDSQKFFSSLPCGGLGVDSDTIWNELHSSGAARMAVGCVIELASKVASGELKNGFAVVRPPGHHAEESTAMGFCFFNSVAITAKYLRDQLNISKILIVDLDVHHGNGTQQAFYADPSILYISLHRYDEGNFFPGSGAPNEVGTGLGEGYNINIAWTGGLDPPMGDVEYLEAFRTIVKPVAKEFDPDMVLVSAGFDALEGHTPPLGGYKVTAKCFGHLTKQLMTLADGRVVLALEGGHDLTAICDASEACVNALLGNELEPLAEDILHQSPNMNAVISLQKIIEIQSMSLKFS

target: T1, MEF2A (human, UniProt Q02078 1-507); test: SPR
T1 sequence (Q02078 whole entry): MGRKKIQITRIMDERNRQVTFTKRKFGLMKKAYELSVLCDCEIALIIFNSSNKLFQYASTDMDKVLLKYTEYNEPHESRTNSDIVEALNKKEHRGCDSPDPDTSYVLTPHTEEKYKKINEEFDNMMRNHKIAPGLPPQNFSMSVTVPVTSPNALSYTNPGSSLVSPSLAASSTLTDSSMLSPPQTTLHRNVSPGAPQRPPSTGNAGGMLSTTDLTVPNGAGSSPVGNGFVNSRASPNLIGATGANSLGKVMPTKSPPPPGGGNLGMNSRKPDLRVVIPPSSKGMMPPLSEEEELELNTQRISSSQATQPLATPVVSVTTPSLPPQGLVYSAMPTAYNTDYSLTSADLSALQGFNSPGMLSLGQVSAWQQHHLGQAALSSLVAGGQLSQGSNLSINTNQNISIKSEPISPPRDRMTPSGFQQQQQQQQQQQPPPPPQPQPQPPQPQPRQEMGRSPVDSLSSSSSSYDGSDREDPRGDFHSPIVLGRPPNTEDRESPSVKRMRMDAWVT

Kd	Binder
5 nM	B1
3.5 nM	B2
19.1 nM	B3

target: T1, MEF2A; test: SPR; remark: another data set of the same source

koff	Binder
0.0025 s⁻¹	B1
0.00082 s⁻¹	B2
0.0082 s⁻¹	B3
